In US9987241B2, “Enzyme conjugate and prodrug cancer therapy” (The Board of Regents of the University of Oklahoma, priority 2014, dated 2018):

B1: mCGL-AI: fusion protein of mouse cystathione-γ-lyase mutant with three mutations (SEQ ID NO:3) and annexin I; post-cleavage SEQ ID NO:11 (protein)
chain: MHHHHHHSSGLVPRGSGMKETAAAKFERQHMDSPDLGTDDDDKMLEVLFQGPMQKDASLSGFLPSFQHFATQAIHVGQEPEQWNSRAVVLPISLATTFKQDFPGQSSGFNYSRSGNPTRNCLEKAVAALDGAKHSLAFASGLAATITITHLLKAGDEIICMDEVYGGTNLYFRRVASEFGLKISFVDCSKTKLLEAAITPQTKLVWIETPTNPTLKLADIGACAQIVHKRGDIILVVDNTFMSAYFQRPLALGADICMCSATKYMNGHSDVVMGLVSVNSDDLNSRLRFLQNSLGAVPSPFDCYLCCRGLKTLQVRMEKHFKNGMAVARFLETNPRVEKVVYPGLPSHPQHELAKRQCSGCPGMVSFYIKGALQHAKAFLKNLKLFTLAVSLGGYESLAELPAIMTHASVPEKDRATLGINDTLIRLSVGLEDEQDLLEDLDRALKAAHPSGGGGSGGGGMAMVSEFLKQARFLENQEQEYVQAVKSYKGGPGSAVSPYPSFNVSSDVAALHKAIMVKGVDEATIIDILTKRTNAQRQQIKAAYLQENGKPLDEVLRKALTGHLEEVVLAMLKTPAQFDADELRGAMKGLGTDEDTLIEILTTRSNEQIREINRVYREELKRDLAKDITSDTSGDFRKALLALAKGDRCQDLSVNQDLADTDARALYEAGERRKGTDVNVFTTILTSRSFPHLRRVFQNYGKYSQHDMNKALDLELKGDIEKCLTTIVKCATSTPAFFAEKLYEAMKGAGTRHKALIRIMVSRSEIDMNEIKVFYQKKYGISLCQAILDETKGDYEKILVALCGGN
modifications: pre-cleavage amino acid sequence of the mCGL-AI fusion protein
B2: mCGL-AV: fusion protein of mouse cystathione-γ-lyase mutant with three mutations (SEQ ID NO:3) and annexin V; post-cleavage SEQ ID NO:10 (protein)
chain: MHHHHHHSSGLVPRGSGMKETAAAKFERQHMDSPDLGTDDDDKMLEVLFQGPMQKDASLSGFLPSFQHFATQAIHVGQEPEQWNSRAVVLPISLATTFKQDFPGQSSGFNYSRSGNPTRNCLEKAVAALDGAKHSLAFASGLAATITITHLLKAGDEIICMDEVYGGTNLYFRRVASEFGLKISFVDCSKTKLLEAAITPQTKLVWIETPTNPTLKLADIGACAQIVHKRGDIILVVDNTFMSAYFQRPLALGADICMCSATKYMNGHSDVVMGLVSVNSDDLNSRLRFLQNSLGAVPSPFDCYLCCRGLKTLQVRMEKHFKNGMAVARFLETNPRVEKVVYPGLPSHPQHELAKRQCSGCPGMVSFYIKGALQHAKAFLKNLKLFTLAVSLGGYESLAELPAIMTHASVPEKDRATLGINDTLIRLSVGLEDEQDLLEDLDRALKAAHPSGGGGSGGGGMATRGTVTDFPGFDGRADAEVLRKAMKGLGTDEDSILNLLTSRSNAQRQEIAQEFKTLFGRDLVDDLKSELTGKFEKLIVAMMKPSRLYDAYELKHALKGAGTDEKVLTEIIASRTPEELSAIKQVYEEEYGSNLEDDVVGDTSGYYQRMLVVLLQANRDPDTAIDDAQVELDAQALFQAGELKWGTDEEKFITIFGTRSVSHLRRVFDKYMTISGFQIEETIDRETSGNLEQLLLAVVKSIRSIPAYLAETLYYAMKGAGTDDHTLIRVVVSRSEIDLFNIRKEFRKNFATSLYSMIKGDTSGDYKKALLLLCGGEDD
modifications: pre-cleavage amino acid sequence of the mCGL-AV fusion protein

Assays:
[1] = test system: hypoxia-inducible factor-1 alpha (HIF-1-α); experiment: Immunohistochemistry staining of HIF-1-α in tumor sections; assay type: in vivo, BALB/c mice; conditions: after 3 weeks of treatment
Excerpt: Immunohistochemistry staining of HIF-1-α with DAB development was quantified from whole section images of mice sacrificed after 3 weeks of treatment. Data is presented as mean±SE (n=3 mice). Statistical significance between groups is indicated by +(p<0.01) or * (p<0.001).

[2] = test system: CD4+ CD25+ FoxP3+ regulatory T cell; conditions: comparing mCGL-AV & Sel groups with and without Cyc, after 3 weeks of treatment
Excerpt: CD4+ CD25+ FoxP3+ regulatory T cell levels were quantified with flow cytometry and are presented as a percentage of spleen lymphocytes in BALB/c mice with 4T1 grafts after 3 weeks of treatment or healthy BALB/c mice with no tumor. Data is mean±SE (n=3 mice).

4T1 lung metastasis = experiment: Lung metastasis nodules in 4T1-TdTomato model; assay type: in vivo, BALB/c mouse; conditions: after 3 weeks of treatment
Excerpt: A Leica stereomicroscope with an automated ImageJ macro was used to quantify fluorescent nodules in the lung. […] Median nodule size on the log scale is marked. Total nodules per group (n=3 mice) is summed and shown.

4T1 tumors = experiment: Combination therapy on 4T1 tumors implanted orthotopically: tumor volume and survival; assay type: in vivo; conditions: BALB/cJ mice with orthotopic 4T1 tumors; protocols of FIGS. 8 and 9; treatment day 10 to 30
Description: Selenomethionine (5 mg/kg IP) was administered 10 h post fusion protein administration. Rapamycin (5 mg/kg IP) and cyclophosphamide (10 mg/kg IP) were administered daily. Treatment began on day 10 and continued until day 30 as indicated by the arrow. Statistical significance vs. untreated is indicated by * (p<0.001).

[3] = test system: human HAAE-1 endothelial cells; experiment: Dissociation constants of fusion proteins on HAAE-1 cells grown in vitro; assay type: binding; conditions: for Kd: HAAE-1 cells in vitro, ± SE (n = 3), read-out: Dissociation Constant (Kd) HAAE-1
[4] = test system: human MDA-MB-231 breast tumors; experiment: Dissociation constants of fusion proteins on MDA-MB-231 cells grown in vitro; assay type: binding; conditions: for Kd: MDA-MB-231 cells in vitro, ± SE (n = 3), read-out: Dissociation Constant (Kd) MDA-MB-231
[5] = L-methioninase enzyme activity of fusion proteins; assay type: biochemical; conditions: for L-methioninase enzyme activity compared with Met-AV: versus Met-AV fusion protein
mouse 4T1 breast tumors = experiment: AV- and AI-targeted mCGL enzyme prodrug therapy on orthotopic 4T1 tumors; assay type: in vivo; conditions: BALB/c mice; fusion protein 10 mg/kg IP daily with selenomethionine 5 mg/kg IP
Description: FIG. 6 is a comparison of efficacy of AV- and AI-targeted mCGL enzyme prodrug therapy with selenomethionine on 4T1 tumors implanted orthotopically in BALB/c mice. mCGL-AV and mCGL-AI were administered daily (10 mg/kg IP). Selenomethionine (5 mg/kg IP) was administered 10 h post fusion protein administration. Treatment began on day 11 and continued until day 18 as indicated by the arrow. Statistical significance vs. untreated is indicated by * (p<0.001). No significant difference was observed between treatment groups. […] Data is presented as mean volume±SE (n=6).

[6] = Fusion protein specific IgG + IgM titers after daily IP administration; assay type: in vivo; conditions: BALB/c mice
[7] = In vivo mCGL-AV plasma clearance (ELISA on serum); parameters: species or system mice; conditions: 10 mg/kg intraperitoneal
Description: An ELISA assay for mCGL-AV was performed on serum samples at intervals following intraperitoneal administration of mCGL-AV at 10 mg/kg. Data is presented as mean±SE (n=3).
Clearance of the mCGL-AV protein from the circulation of BALB/cJ mice occurred with pharmacokinetics similar to the other enzyme prodrug systems in SCID mice.

Molecule | Median Survival (4T1 tumors) | Kd [3] | Binding to HAAE-1 human endothelial cells in vitro [3] | Kd [4] | Binding to MDA-MB-231 tumor cells in vitro [4] | L-methioninase enzyme activity [5] | L-methioninase enzyme activity compared with Met-AV [5] | Negative effects of treatment (mouse 4T1 breast tumors) | also measured
O=P1(N(CCCl)CCCl)NCCCO1 (stereo not shown) [Cyc, cyclophosphamide] | 23 days |  |  |  |  |  |  |  | HIF-1-α expression in tumor sections [1]: drastic reduction of HIF-1-α expression; Regulatory T cell levels in spleen [2]: mild reduction in regulatory T cell levels; Lung metastatic nodules, number and size (4T1 lung metastasis): reduced numbers of metastases
C[Se]CC[C@H](N)C(=O)O [Sel, selenomethionine] | 18 days |  |  |  |  |  |  |  | 
CO[C@H]1C[C@@H]2CC[C@@H](C)[C@@](O)(O2)C(=O)C(=O)N2CCCC[C@H]2C(=O)O[C@H]([C@H](C)C[C@@H]2CC[C@@H](O)[C@H](OC)C2)CC(=O)[C@H](C)/C=C(\C)[C@@H](O)[C@@H](OC)C(=O)[C@H](C)C[C@H](C)/C=C/C=C/C=C/1C [Rap, rapamycin] | 14 days |  |  |  |  |  |  |  | 
B1 |  | 2.3 nM | bound strongly | 0.68 nM | bound strongly | 1.0 U/mg | substantially equivalent | No negative effects were observed | 
B2 | 18 days | 0.11 nM | bound strongly | 2.5 nM | bound strongly | 1.3 U/mg | substantially equivalent | No negative effects were observed | Fusion protein specific IgG + IgM titer, Day 0 ([6]; daily 10 mg/kg IP, Day 0): Not detected; Fusion protein specific IgG + IgM titer, Day 7 ([6]; daily 10 mg/kg IP, Day 7): Not Detected; Fusion protein specific IgG + IgM titer, Day 14 ([6]; daily 10 mg/kg IP, Day 14): Not Detected; Fusion protein specific IgG + IgM titer, Day 21 ([6]; daily 10 mg/kg IP, Day 21): Not Detected; Immunogenicity: IgG+IgM antibody titers in the bloodstream ([6]; daily intraperitoneal administration, 21 day period): did not produce detectable IgG+IgM antibody titers; Time to complete clearance from the circulation ([7]; BALB/cJ mice): ≤ 10 h; Clearance from the circulation (time) ([7]; SCID mice, ELISA on serum): < 10 h
